Test results from publication PMC5997747.

B1: recombinant human NCAM2 FnIII1-2 double domain (expressed in E. coli) (domain or fragment)
chain: SPYGVKIIELSQTTAKVSFNKPDSHGGVPIHHYQVDVKEVASEIWKIVRSHGVQTMVVLNNLEPNTTYEIRVAAVNGKGQGDYSKIEIFQTLPVREPSPPSIHGQPSSGKSFKLSITKQDDGGAPILEYIVKYRSKDKEDQWLEKKVQGNKDHIILEHLQWTMGYEVQITAANRLGYSEPTVYEFSMPPKPNIIKD
B2: recombinant human NCAM2 FnIII1 domain (domain or fragment)
chain: SPYGVKIIELSQTTAKVSFNKPDSHGGVPIHHYQVDVKEVASEIWKIVRSHGVQTMVVLNNLEPNTTYEIRVAAVNGKGQGDYSKIEIFQTLPV

Biological target: FGFR1β (IIIc)/Fc chimera
Assay: SPR; BIAcore 2000, 25 °C, 10 mM PBS pH 7.4; about 1000 RU FGFR1β (IIIc)/Fc and 750 RU human IgG1 Fc (control cell) immobilised on a CM4 chip by amine coupling; NCAM2 domains injected at 20-30 μl/min; steady state affinity fit, Kd roughly estimated

Kd	Molecule
400 nM	NCAM2 FnIII1-2 domains expressed from P. pastoris (domain or fragment)
4400 nM	recombinant human NCAM2 FnIII2 domain (from UniProt O15394 592-693) (domain or fragment)
130 nM	B1
290 nM	B2
